From article PMC4303232

Target: FADD (UniProt Q13158)
Assay: anti-flag immunoprecipitation, immunoblot
Conditions: reference: wild type; sites S116

## PEA15 (from UniProt Q15121) S116A
  binding against the reference: weaker
